Data as given in PMC3406060.

Tests used:
[1] = target: IRA/IGF1R hybrid receptor (IRA-Luc/IGF1R-YFP) (UniProt P06213)
[2] = target: IRB/IGF1R hybrid receptor (IRB-Luc/IGF1R-YFP) (UniProt P06213)
[3] = target: IRB homodimer (IRB-Luc/IRB-YFP) (UniProt P06213)
[4] = target: IRA homodimer (IRA-Luc/IRA-YFP) (UniProt P06213)
[5] = target: IRA/IGF1R hybrid receptor (IRA-Luc/IGF1R-YFP) (UniProt P06213); remark: listed apart in the source
[6] = target: IRB/IGF1R hybrid receptor (IRB-Luc/IGF1R-YFP) (UniProt P06213); remark: listed apart in the source
[7] = target: IRB homodimer (IRB-Luc/IRB-YFP) (UniProt P06213); remark: listed apart in the source
[8] = target: IRA homodimer (IRA-Luc/IRA-YFP) (UniProt P06213); remark: listed apart in the source
[9] = target: insulin receptor (IR), endogenous in MCF-7 and MDA-MB231 cells (human (endogenous in MCF-7 and MDA-MB231)) (UniProt P06213)

Row | Substance | EC50 of ligand-induced BRET (Luc/YFP on the two ß-subunits) of partially purified receptors, series with M1 and M2 [1] [nM] | EC50 of ligand-induced BRET (Luc/YFP on the two ß-subunits) of partially purified receptors, series with M1 and M2 [2] [nM] | EC50 of ligand-induced BRET (Luc/YFP on the two ß-subunits) of partially purified receptors, series with M1 and M2 [3] [nM] | EC50 of ligand-induced BRET (Luc/YFP on the two ß-subunits) of partially purified receptors, series with M1 and M2 [4] [nM] | EC50 of ligand-induced BRET (Luc/YFP on the two ß-subunits) of partially purified receptors [5] [nM] | EC50 of ligand-induced BRET (Luc/YFP on the two ß-subunits) of partially purified receptors [6] [nM] | EC50 of ligand-induced BRET (Luc/YFP on the two ß-subunits) of partially purified receptors [7] [nM] | EC50 of ligand-induced BRET (Luc/YFP on the two ß-subunits) of partially purified receptors [8] [nM] | EC50 of PIP3 production (BRET, Luc-Akt-PH and membrane YFP) in living MDA-MB231 cells [9] [nM]
1 | Glargine metabolite M1 (A21Gly-insulin) (ligand) | 225 | 147 | 9.64 | 16.7 |  |  |  |  | 
2 | Glargine metabolite M2 (A21Gly,B30desThr-insulin) (ligand) | 315 | 169 | 6.31 | 13.8 |  |  |  |  | 
3 | IGF1 (from UniProt P05019 49-118) (ligand) | 4.23 | 3.05 | 130 | 50.6 | 3.01 | 2.87 | 50 | 34.4 | 
4 | detemir (B29Lys(e-tetradecanoyl),desB30)-insulin) (ligand) |  |  |  |  | 335 | 175 | 5.24 | 5.13 | 2.3
5 | glulisine (B3Lys,B29Glu-insulin) (ligand) |  |  |  |  | 183 | 107 | 1.64 | 1.61 | 0.84
